Patent US20090281035A1

Target: CD94-NKG2A-mFc singlechain (human)
Assay: SPR, scCD94/NKG2A chip saturated with humZ270 10 µg/ml, then HLA-E tetramer 8 µg/ml (competitor: HLA-E tetramer)

Chain of CD94-NKG2A-mFc singlechain (human) (chain, as listed by the source): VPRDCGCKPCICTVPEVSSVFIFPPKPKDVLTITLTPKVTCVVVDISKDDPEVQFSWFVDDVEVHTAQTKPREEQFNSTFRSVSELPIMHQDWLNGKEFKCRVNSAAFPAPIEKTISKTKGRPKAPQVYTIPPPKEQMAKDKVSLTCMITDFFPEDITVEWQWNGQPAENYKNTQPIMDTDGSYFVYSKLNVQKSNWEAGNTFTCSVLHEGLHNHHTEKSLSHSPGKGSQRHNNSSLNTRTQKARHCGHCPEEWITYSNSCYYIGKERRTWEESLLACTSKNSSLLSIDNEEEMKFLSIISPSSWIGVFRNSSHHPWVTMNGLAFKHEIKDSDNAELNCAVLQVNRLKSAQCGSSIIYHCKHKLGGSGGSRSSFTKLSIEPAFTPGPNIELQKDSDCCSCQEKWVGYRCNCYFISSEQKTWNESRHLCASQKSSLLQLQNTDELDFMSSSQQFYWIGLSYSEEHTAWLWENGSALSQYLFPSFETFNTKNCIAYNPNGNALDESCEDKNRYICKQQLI

humZ270 (antibody)
percentage of inhibition of HLA-E tetramer binding: 81.8%
